How the values were obtained:
HeLa Kyoto [1] = assay: solubility in G1/S (NP-40 vs SDS abundance) (log2 ratio); higher = more soluble; details: cell cycle stage: G1/S
HeLa Kyoto [2] = assay: solubility change mitosis vs G1/S (difference of NP-40 vs SDS log2 ratios) (log2 ratio difference); higher = more soluble in mitosis
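Throughout, for solubility change mitosis vs G1/S (difference of NP-40 vs SDS log2 ratios): synchronized HeLa Kyoto cells (double thymidine block for G1/S, nocodazole release for mitosis), protein amounts in NP-40 versus SDS lysates quantified by mass spectrometry, three biological replicates.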
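Throughout, for solubility in G1/S (NP-40 vs SDS abundance): HeLa Kyoto cells arrested at G1/S by double thymidine block, proteins quantified by TMT10plex mass spectrometry in mild NP-40 versus SDS extracts, three biological replicates.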

Substance | solubility in G1/S (log2) (HeLa Kyoto [1]) | solubility change mitosis (log2) (HeLa Kyoto [2])
MAEGGGPEPGEQERRSSGPRPPSARDLQLALAELYEDEVKCKSSKSNRPKATVFKSPRTPPQRFYSSEHEYSGLNIVRPSTGKIVNELFKEAREHGAVPLNEATRASGDDKSKSFTGGGYRLGSSFCKRSEYIYGENQLQDVQILLKLWSNGFSLDDGELRPYNEPTNAQFLESVKRGEIPLELQRLVHGGQVNLDMEDHQDQEYIKPRLRFKAFSGEGQKLGSLTPEIVSTPSSPEEEDKSILNAVVLIDDSVPTTKIQIRLADGSRLIQRFNSTHRILDVRNFIVQSRPEFAALDFILVTSFPNKELTDESLTLLEADILNTVLLQQLK [UBXN2B] | 0.562 | 0.053
MGFWCRMSENQEQEEVITVRVQDPRVQNEGSWNSYVDYKIFLHTNSKAFTAKTSCVRRRYREFVWLRKQLQRNAGLVPVPELPGKSTFFGTSDEFIEKRRQGLQHFLEKVLQSVVLLSDSQLHLFLQSQLSVPEIEACVQGRSTMTVSDAILRYAMSNCGWAQEERQSSSHLAKGDQPKSCCFLPRSGRRSSPSPPPSEEKDHLEVWAPVVDSEVPSLESPTLPPLSSPLCCDFGRPKEGTSTLQSVRRAVGGDHAVPLDPGQLETVLEK [SNX11] | 0.38 | -0.17
ARAP3 | 0.016 | -0.158
MSSKMVISEPGLNWDISPKNGLKTFFSRENYKDHSMAPSLKELRVLSNRRIGENLNASASSVENEPAVSSATQAKEKVKTTIGMVLLPKPRVPYPRFSRFSQREQRSYVDLLVKYAKIPANSKAVGINKNDYLQYLDMKKHVNEEVTEFLKFLQNSAKKCAQDYNMLSDDARLFTEKILRACIEQVKKYSEFYTLHEVTSLMGFFPFRVEMGLKLEKTLLALGSVKYVKTVFPSMPIKLQLSKDDIATIETSEQTAEAMHYDISKDPNAEKLVSRYHPQIALTSQSLFTLLNNHGPTYKEQWEIPVCIQVIPVAGSKPVKVIYINSPLPQKKMTMRERNQIFHEVPLKFMMSKNTSVPVSAVFMDKPEEFISEMDMSCEVNECRKIESLENLYLDFDDDVTELETFGVTTTKVSKSPSPASTSTVPNMTDAPTAPKAGTTTVAPSAPDISANSRSLSQILMEQLQKEKQLVTGMDGGPEECKNKDDQGFESCEKVSNSDKPLIQDSDLKTSDALQLENSQEIETSNKNDMTIDILHADGERPNVLENLDNSKEKTVGSEAAKTEDTVLCSSDTDEECLIIDTECKNNSDGKTAVVGSNLSSRPASPNSSSGQASVGNQTNTACSPEESCVLKKPIKRVYKKFDPVGEILKMQDELLKPISRKVPELPLMNLENSKQPSVSEQLSGPSDSSSWPKSGWPSAFQKPKGRLPYELQDYVEDTSEYLAPQEGNFVYKLFSLQDLLLLVRCSVQRIETRPRSKKRKKIRRQFPVYVLPKVEYQACYGVEALTESELCRLWTESLLHSNSSFYVGHIDAFTSKLFLLEEITSEELKEKLSALKISNLFNILQHILKKLSSLQEGSYLLSHAAEDSSLLIYKASDGKVTRTAYNLYKTHCGLPGVPSSLSVPWVPLDPSLLLPYHIHHGRIPCTFPPKSLDTTTQQKIGGTRMPTRSHRNPVSMETKSSCLPAQQVETEGVAPHKRKIT [ICE2] | -0.234 | 0.281
MEAEESEKAATEQEPLEGTEQTLDAEEEQEESEEAACGSKKRVVPGIVYLGHIPPRFRPLHVRNLLSAYGEVGRVFFQAEDRFVRRKKKAAAAAGGKKRSYTKDYTEGWVEFRDKRIAKRVAASLHNTPMGARRRSPFRYDLWNLKYLHRFTWSHLSEHLAFERQVRRQRLRAEVAQAKRETDFYLQSVERGQRFLAADGDPARPDGSWTFAQRPTEQELRARKAARPGGRERARLATAQDKARSNKGLLARIFGAPPPSESMEGPSLVRDS [ABT1] | -0.95 | 0.803
